These results are taken from the domain aggregation screens of Martell et al. (2025).

This data set in a line: soluble fraction after stress (log2 fold change); higher = more stays soluble; pooled small domains, quantitative proteomics. To be noted: stress: 50 degC. The method in brief:
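After stress at 50°C, the amount of each protein still soluble was measured. This was done on pooled custom libraries of small protein domains, using high-throughput quantitative proteomics. The figure given is a base-two log fold change and stands for aggregation propensity, with higher values meaning more protein stays in solution.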
For the sequence “HMAFGTGTVTASSLRVREDASTSAATLDTLSKGSKVSVLADEQDGFYKVQIGEQVGYMSAEYLDVTE”, the “soluble fraction (log2)” value stood at 0.0904. Take “HMQVDENNINKRIDKYLSENTEYSRSTIQKMIDNGNITVNSKPTKSSYKLELNDIITIDNNFKE”: the “soluble fraction (log2)” value was found to be 0.369. Regarding “HMGPKPVDMSPIPEGQRNQVLHDWMYGRAANHPENWGQIRSDALERGLKSGLKADEIHAITGSVARALGLE”, the “soluble fraction (log2)” value came to 0.12. As for “HMSDTSELESIIAQIIEDNPKSIEDIGAGNQKAYGFLTGQVMKATKGQANPQVANKIIRELVARKLE”, the “soluble fraction (log2)” value is 0.575. For “HMPLQKNRPKIKPQKVVFLFSVEWMWSPAHNRIDSYFINIKPSRYYLWNSFFDRHSFSDYWDFIGYTEN”, the “soluble fraction (log2)” value was -0.0868.

As for “HMGDADDLSRELLQQGLSLKEAVADFERRYLQQAMQRHSSIASVSEALDVHFSTLWRKLVKYNLV”, the “soluble fraction (log2)” value is -0.047. For the sequence “HMALSGTVQNFAGGIMILIFRPFKTGDYIEALGYFGKVSEVNIVSTKLRTFDNKTIILPNGALSNGNIQNY”, the “soluble fraction (log2)” value is -0.889. The result for “HMNNSDIDITVGKNSISINNPNRTNIIIYSSNGMLIDSSKNASYKRNLPSGIYIVKSGSSTHKVIV” reads -0.148; that for “HMKDMWNRIRRARLSAGLSQAALAKETGVRRSAVTQWEKEGGTSPSVANLARIAVVTQVHFEWLATGRGPG”, -2.67; that for “HMSKLQKTKYAGVYFTEDTQTRVKTYVARIVLAGIIDTEVVVGHSNDQHRTNAAIAYQRRLELIQEAKN”, -3.86.

For the sequence “HMAMDYTVVHSDRRTIAIQIQRDGRVVVRAPYAATAEDIRRVVDSHRDWVEKTVRRQQEQLAAS”, the “soluble fraction (log2)” value is -0.0261. Under “HMETVRLSVDAQGAYYWNEQRVDDSALPDLLREASGRKPQPDLHIRGDKAVRYERVAEAMAAAQRAGLKKI” stands 0.0588. “HMGNVGEAIEALVKGFQEGNQFQTLLGVTGSGKTFTMANVIAALNKPTLIISHNKTLAAQLYLSLIHIS”: the “soluble fraction (log2)” value was 0.112.

With “HMESAVDVFRSILKEKGVTEEEVRQVVAARGKYTLETPIDDYPNEFLYGYVIRYWDQIFDIIQQSREAK”, the “soluble fraction (log2)” value is -0.321. In the case of “HMKSIETVAELVAELKKLNPNAKISNIDGTYTLEEDINTITLPKDFKYDNNLGINNKIDDFTPYISLDVKA”, the “soluble fraction (log2)” value came out at 0.41. Consider “HMSDDSTIVELLASSLRRDIAFGTLLPDQKLKLNELRTRYGGSIHSMRETLRILSAEGLVEATAQRGFRVT”, for which the “soluble fraction (log2)” value is -0.0813.

With “HMDRKFFFNEQYEDYINSDLKVKFMNDSGSKKSFQGELTKVTPSDLFLESEKESVKVPFSSIIQANLI”, the “soluble fraction (log2)” value is -0.147. For “HMFEERKKDWNLTGLLDDVIRRYIHQLTNDELNEINLEKSSGMPDEEIKNGIKLPLAVMQQRRETWGS”, the “soluble fraction (log2)” value is -0.16. Turning to “HMDASKVKIEDLGLSTRTENALVAASIRTAGGLARKSEMDLLSTDGLGEKGITEIKKALSDLGLELK”, the “soluble fraction (log2)” value was 0.285. As for “HMVRKGEINFDQLSVRARNALRNMNILFEKEILKLTEYDLKSIPNLGVKTTNELLSYIKRLQTNQKEE”, the “soluble fraction (log2)” value is -0.191. The result for “HMVNEALDEFFVGLKNLYESATGKPAIAGAHFDGEPKTDFEKLMYLGYQIIRPAQAYPSALKAYERAIARS” reads -0.173. Under “HMEEQIEVPVQINGKVRSKLTVAPETDEKQIEALALADPKVQQQLEGKRVLKVIVAQKRLVNIVA” stands -0.0336; under “HMVKNYYEILEVDKKASPEVIEKAYKTLAKKYHPDLQEAENNGQYEEKMKEINEAYSVLSDEFKRRTYDEQ”, 0.114. Regarding “HMTGGLTQEQISQLRMLTPQQIEQLRQLQPQQVEMLRQLRPEQVMLLTQLEPQQIMAFMRLEPSVIMQL”, the “soluble fraction (log2)” value was -0.215. Consider “HMTDEYYSYIGKTGTTITVLRPAGIAEVEGERLNVVSEGEFIRKGAAILVKEVEGARILVEEVN”, for which the “soluble fraction (log2)” value was -0.381. “HMQKNKSVLFKDIVIAFNQNPKKLFNYKQLAADLDIHSEAERMLISQLLNDLKDQNFLEEVERGKYKLKL”: the “soluble fraction (log2)” value came to 0.0237. In the case of “HMDLDIQNYNLDEILELFKVSYDFDETELKKAHKMYLMTHPDKSNLNPNIFLFFVQAYDILRKLYEFR”, the “soluble fraction (log2)” value was -0.468. For the sequence “HMFERFIFTDEVYIRLKKSGLPQTTLRPLLEIHGKSFDHNEINIILSGLIPNQDFERYAQIIKSHSRF”, the “soluble fraction (log2)” value is -3.82. Take “HMNKMIDAPDLTGLSLEDAKLVLEANKLQLGTVSHEPSDKPEDVVISQDPMEGQEIQQGGKVNLVVSYGD”: the “soluble fraction (log2)” value was -0.0696. Take “HMYSSIIGIAFTRAENKPAAPTGGSYSNPHPVDGNWKAAPYDGDGNLWYSIRHFNENVDIQDREWSDPTLG”: the “soluble fraction (log2)” value is -0.24. In the case of “HMTTGGAEELGRTERKIVEQVGRGLSNREIAQVLGLSEGTVRNYLSTILGKLGLRDRTQLAIWSVQTGFAA”, the “soluble fraction (log2)” value came out at 0.197. The result for “HMVVLPGEVVALKIIQTGSSKDQGVGYLEDGTMVVVDGAKNSIGKTIEIQISRSHQTVAGRMLFGIAMS” reads -1.24; that for “HMATTMSADWRPSEDAVGILVNAEINARFIEDAIPEFVLYWRERGAVHGAWNSKFIEHIRRQWAKFSAS”, -2.2. Turning to “HMDKVSYALGLGIGRQLTDMGAKDLNIDDFAQAIKDVLAGGEVKLSDAEAQTIVRNFFDEQEKKQRA”, the “soluble fraction (log2)” value is -0.0034. For “HMDGAPVTVIKNGEVDVATTMRVGLSASELMFKLRAAGVDEVQIVHRAVLEQNGQLTIIKYGEE”, the “soluble fraction (log2)” value amounted to 0.0259. Under “HMKIRKAVIPAAGLGTRVLPASKSIPKEMLPIVDKPVIQYIVEEAVKAGITEILIITGRGKGAIEDHFDRS” stands -0.122; under “HMEYYDDEELDRFRGVEADAYDEDAVNEFRDVLYTLQEIEVAGWLRSLQLRAINLPDELKDEAFLI”, -1.64. The result for “HMESSKLQASIINYLERRPTQKFTAEELFKGLSLEKASVFNELVKELTSLERSHKVEITADDKFKIARPQ” reads -0.126. Under “HMNSSTVDLAKEFLIDLLSSVEKMPASEVQEEAKNAGYSVASIRRAKDNLNIKPFKDGSAWYWKLPSIFK” stands -0.114. With “HMTGESIPFSKFLSEVDSGRVINVEIQGNNISGLLSDGNKFKTYSPNYPNLVEILSEKEVSIVATPLE”, the “soluble fraction (log2)” value was 0.0525.

Turning to “HMAESNQIQLSDVREALNMIGPASWLDLVHYLDTGKGRGGQRLRRMLKSLSRSGEIELVARGTYQITDN”, the “soluble fraction (log2)” value is -0.422. For the sequence “HMSSESIKTDKNVGVGSTLEELEKAYGSDYTLSGKMYRYYQDDNSKYMYFFILNDVVQYYGYGIDV”, the “soluble fraction (log2)” value is -1.53. As for “HMDVAWDAIKAKLKEVVDAEDKAHPLNDDQIVKALGESGITIARRTIAKYRDLLGIPPARKRKA”, the “soluble fraction (log2)” value stood at 0.0649. The result for “HMQQVIQSGQKVQLMATDGSFQVSAEGVALKNGSVGEVIGVRMPSGRVISGVVSASGAVEVR” reads 0.146; that for “HMETMSYAEFNAIRIGKAKLMLADPSLKIWEISEAVGYTDTAHFARTFKKLEGMSANEYRNSL”, -1.12.

Turning to “HMPQGFEDLTEREREVLTLIAEGRTNQEIADALVISIKTVNRHRENIMAKLNLHSRVELVRYAIAQGLI”, the “soluble fraction (log2)” value was -0.474. As for “HMKDEHYLYIKARVDNGDYPHLSELKSAEEIELVMPKLLQDGIVEFNKETGEYTIGEDVKAEIERL”, the “soluble fraction (log2)” value is 0.108.

As to “HMTALTTEDLERRFYAKTYEGESAQKRLARLEISVFGELRQGRPESDRLHDLNNAVLEKERAALNAGAVG”, the “soluble fraction (log2)” value worked out at 0.123.

With “HMDILEVLIKKDLAMELLEQLTERQRTVVYLRYFYQLNQKEIADYLGISQQRVSEILSRAKAVLTAYTKK”, the “soluble fraction (log2)” value was -1.43. The result for “HMGQKASEVEKIFVELQQQIIRGDLPPGYRLVESQIAAQFGVSRTPARLAIERLATAGLVAHETNRGATVH” reads -0.42.
